Where no end group is shown, it is not given here.
What was measured:
Experiment in all cases: MST
αSyn-SIM1(5A) = molecular target: αSyn-SIM1(5A)
αSyn-SIM2(5A) = molecular target: αSyn-SIM2(5A)
αsyn(59-66) = molecular target: T1, αsyn(59-66)
T1 peptide: TKEQVTNV

αsyn(87-95) = molecular target: T2, αsyn(87-95)
T2 peptide: SIAAATGFV

αsyn(35-45) = molecular target: T3, αsyn(35-45)
T3 peptide: EGVLYVGSKTK

αsyn(48-60) = molecular target: T4, αsyn(48-60)
T4 peptide: VVHGVATVAEKTK

αsyn(74-84) = molecular target: T5, αsyn(74-84)
T5 peptide: VTAVAQKTVEG

α-Synuclein-V40R/V49R = molecular target: α-Synuclein-V40R/V49R
[1] = molecular target: human wild-type α-synuclein (full-length) (UniProt P37840 1-140)

B1: SUMO1(15-55) (peptide)
peptide: DKKEGEYIKLKVIGQDSSEIHFKVKMTTHLKKLKESYCQRQ
modifications: also: Alexa Fluor 647 NHS ester on amines when used as MST target
Kd (αSyn-SIM1(5A)): 19.6 µM | Kd (αSyn-SIM2(5A)): 860 nM | Kd (αsyn(59-66)): 108 µM | Kd (αsyn(87-95)): 364 µM | Kd (αsyn(35-45)): 1190 nM | Kd (αsyn(48-60)): 870 nM | Kd (αsyn(74-84)): 195 µM | Kd (α-Synuclein-V40R/V49R): 88.3 µM

B2: SUMO1(31-55) (peptide)
peptide: SSEIHFKVKMTTHLKKLKESYCQRQ
Kd [1]: 2320 nM
